Experiment: ANS fluorescence (conformational disorder)
Assay type: physicochemical
Settings: 1 μM lispro variant, 5 μM ANS, 100 mM phosphate, pH 8.0, ambient temperature, 350 nm excitation; mean ± SD, three separate HPLC fractions
Procedure: Figure 4 Fibrillation of lispro variants.A, lispro variants (60 μM in 100 mM phosphate buffer, pH 8.0) were incubated at 37 °C with vigorous shaking; fibril formation was monitored by ThT fluorescence. Fibrillation runs were performed on two separate HPLC fractions, each in triplicate or quadruplicate, on two separate days. B–E, TEM images of lispro (B), KP-4R-F (C), KP-4S-F (D), and KP-44-diF (E) aggregates. F, ANS emission spectra of lispro variants (1 μM lispro variant labeled with 5 μM ANS in 100 mM phosphate buffer, pH 8.0). The data presented here indicate the mean ± SD for each variant from measurements of three separate HPLC fractions. 44-diF, 4,4-difluoroproline; 4R-F, 4R-fluoroproline; 4S-F, 4S-fluoroproline; ThT, thioflavin T. […]
Lispro variants (1 μM) were mixed with 5 μM ANS in 100 mM phosphate buffer, pH 8.0. Fluorescence emission spectra were measured at ambient temperature (350 nm excitation). Measurements for each lispro were performed in triplicate from three separate HPLC fractions. […]
Transmission electron microscopy: […]
Lispro variants (1 µM) were mixed with 5 µM ANS in 100 mM phosphate buffer, pH 8.0.
Fluorescence emission spectra were measured in 1 cm quartz cuvettes at ambient temperature using a PTI QuantaMaster fluorescence spectrofluorometer. A 2 nm s -1 scan rate and 350 nm excitation wavelength were used. Measurements for each variant were performed in triplicate from three separate HPLC fractions.

Row | Substance | ANS emission maximum [nm]
1 | KP-4R-F: insulin lispro with ProB29 replaced by 4R-fluoroproline | 464 ± 4
2 | KP-4S-F: insulin lispro with ProB29 replaced by 4S-fluoroproline | 463 ± 6
3 | KP-44-diF: insulin lispro with ProB29 replaced by 4,4-difluoroproline | 462 ± 5
4 | insulin lispro: fast-acting insulin with inversion of the residues ProB28 and LysB29; Humalog, Eli Lilly [reference compound] | 466 ± 2

Experiment: Analytical ultracentrifugation, velocity sedimentation: hydrodynamic parameters
Assay type: physicochemical
Settings: 140-206 µM in 100 mM phosphate buffer, pH 8.0; 60,000 RPM, 20 °C; brackets 95% confidence interval
Procedure: Lispro variants (140–206 μM in 100 mM phosphate buffer, pH 8.0) were analyzed by velocity sedimentation at the Canadian Center for Hydrodynamics at the University of Lethbridge using absorbance optics. All samples were measured at 60,000 RPM and 20 °C. Data were analyzed with UltraScan III version 4.0 release 6606 ([38]). Velocity data were initially fitted with the two-dimensional spectrum analysis ([39]) to determine meniscus position and time- and radially-invariant noise, and to generate molecular weight distributions. Two-dimensional spectrum analysis results were refined using the genetic algorithm approach ([40]). Sedimentation and diffusion coefficients derived from the genetic algorithm analysis were transformed to molar mass distributions, assuming a partial specific volume of 0.7248 ml/g for all lispro variants. The enhanced van Holde-Weischet analysis ([41]) was used to determine diffusion-corrected sedimentation coefficient distributions. For the Kd analysis, AUC data were fitted with a discrete model genetic algorithm approach ([29]), assuming the known molar mass of the monomer and floating the Kd, koff, total concentration, partial specific volumes, and frictional ratios as reported in Table S3. […]
Analytical ultracentrifugation:
Lispro variants were formulated at 140 -206 µM in 100 mM phosphate buffer, pH 8.0. Velocity sedimentation experiments were performed at the Canadian Center for Hydrodynamics at the University of Lethbridge using absorbance optics. High concentrations sample s were measured at 237 nm, intermediate concentration samples at 232 nm, and low concentration samples at 225 nm. All samples were measured at 60,000 RPM and 20°C in standard Beckman Coulter cell […]
housings fitted with 0.3 cm epon-charcoal centerpieces for the high concentration samples, and 1.2 cm epon-charcoal centerpieces for the intermediate and low concentration samples. All cells were fitted with sapphire windows. Data were analyzed with UltraScan III version 4.0 release 6606. (38) Velocity data were initially fitted with the two -dimensional spectrum analysis (39) to determine meniscus position and time - and radially-invariant noise, and to generate molecular weight distributions. 2DSA results were refined using the genetic algorithm (GA) approach. (40) Sedimentation and diffusion coefficients derived from the GA analysis were transformed to molar mass distributions (see Figure S2), assuming a partial specific volume of 0.7248 ml/g for all lispro variants. The enhanced van Holde -Weischet analysis (41) was used to determine diffusion - corrected sedimentation coefficient distributions. For the K d analysis, AUC data were fitted with a discrete model genetic algorithm (DMGA) approach,(29) assuming the known molar mass of the monomer, and floating the K d, koff, total concentration, partial specific volumes, and frictional […]
Lispro samples (60 µM in 100 mM sodium phosphate, pH 8.0) were centrifuged at 22,000 g for 1 h at 4°C, before 1 µM thioflavin T (ThT) was added. Each lispro (200 µL) was added to a 96 -well, black, clear bottom plate (Greiner Bio -One) and sealed. Samples were shaken continuously at 960 rpm on a Varioskan multimode plate reader at 37°C, and fluorescence readings were recorded every 15 min (444 nm excitation, 485 nm em ission). Fibrillation runs were performed on at least two separate HPLC fractions, each in triplicate or quadruplicate, and on two different days. The growth phase of each fibrillation replicate was fit to a linear function; f ibrillation lag times were reported as the x-intercept of this fit. Fibril samples were stored at 4°C until analysis by transmission electron microscopy (TEM).
Transmission electron microscopy:
Lispro fibrils were briefly centrifuged (5 kg, 1 min), then washed twice and resuspended in ddH 2O.
Fibrils were stained with 2% uranyl acetate on a 300 -mesh formvar/carbon coated copper grid (Electron Microscopy Sciences) and imaged on a Tecnai T12 LaB6 […] transmission electron […]

Row | Substance | Partial specific volume PSV
5 | KP-4R-F: insulin lispro with ProB29 replaced by 4R-fluoroproline | 0.69 [0.69, 0.70] ml g-1
6 | KP-4S-F: insulin lispro with ProB29 replaced by 4S-fluoroproline | 0.68 [0.67, 0.69] ml g-1
7 | KP-44-diF: insulin lispro with ProB29 replaced by 4,4-difluoroproline | 0.67 [0.64, 0.70] ml g-1
8 | insulin lispro: fast-acting insulin with inversion of the residues ProB28 and LysB29; Humalog, Eli Lilly [reference compound] | 0.72 [0.70, 0.74] ml g-1

Same assay, conditions: dimer; 140-206 µM in 100 mM phosphate buffer, pH 8.0; 60,000 RPM, 20 °C; brackets 95% confidence interval

Row | Substance | Dimer diffusion coefficient D | Dimer frictional ratio | Dimer sedimentation coefficient s
9 | KP-4R-F: insulin lispro with ProB29 replaced by 4R-fluoroproline | 1.31 [1.08, 1.55] µm2/s | 1.12 [0.90, 1.35] | 1.99 [1.58, 2.39] S
10 | KP-4S-F: insulin lispro with ProB29 replaced by 4S-fluoroproline | 1.20 [1.05, 1.35] µm2/s | 1.23 [1.08, 1.37] | 1.87 [1.63, 2.10] S
11 | KP-44-diF: insulin lispro with ProB29 replaced by 4,4-difluoroproline | 0.99 [0.84, 1.14] µm2/s | 1.50 [1.40, 1.60] | 1.59 [1.30, 1.88] S
12 | insulin lispro: fast-acting insulin with inversion of the residues ProB28 and LysB29; Humalog, Eli Lilly [reference compound] | 1.10 [0.99, 1.21] µm2/s | 1.31 [1.20, 1.43] | 1.48 [1.25, 1.72] S

Same assay, conditions: monomer; 140-206 µM in 100 mM phosphate buffer, pH 8.0; 60,000 RPM, 20 °C; brackets 95% confidence interval

Row | Substance | Monomer diffusion coefficient D | Monomer frictional ratio | Monomer sedimentation coefficient s
13 | KP-4R-F: insulin lispro with ProB29 replaced by 4R-fluoroproline | 1.20 [1.14, 1.25] µm2/s | 1.54 [1.47, 1.61] | 0.90 [0.88, 0.93] S
14 | KP-4S-F: insulin lispro with ProB29 replaced by 4S-fluoroproline | 1.32 [1.29, 1.36] µm2/s | 1.40 [1.35, 1.44] | 1.03 [1.00, 1.05] S
15 | KP-44-diF: insulin lispro with ProB29 replaced by 4,4-difluoroproline | 1.24 [1.16, 1.32] µm2/s | 1.50 [1.40, 1.60] | 1.00 [0.95, 1.04] S
16 | insulin lispro: fast-acting insulin with inversion of the residues ProB28 and LysB29; Humalog, Eli Lilly [reference compound] | 1.26 [1.16, 1.35] µm2/s | 1.44 [1.32, 1.57] | 0.85 [0.81, 0.88] S
